Six molecules from US20100330089A1 (Pfizer, published 2010) can be followed below.

One experiment has as its target CD20 (primary B cells) (UniProt P11836). The experiment can be described thus: flow cytometry. The conditions noted are these: Fc fusion.
For experiment [1], the target named is T1, Human CD20 (human) (UniProt P11836).
T1 sequence: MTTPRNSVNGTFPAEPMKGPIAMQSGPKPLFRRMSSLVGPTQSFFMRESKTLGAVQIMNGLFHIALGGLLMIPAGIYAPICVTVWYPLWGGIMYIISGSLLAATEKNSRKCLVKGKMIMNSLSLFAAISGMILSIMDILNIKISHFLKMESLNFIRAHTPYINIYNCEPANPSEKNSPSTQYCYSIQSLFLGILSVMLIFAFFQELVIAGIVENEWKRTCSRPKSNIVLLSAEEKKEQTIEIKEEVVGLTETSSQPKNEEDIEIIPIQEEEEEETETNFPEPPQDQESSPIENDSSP
Description: cell-based or functional assay.

In experiment [2] the target is T1, Human CD20 (human). The experiment can be described thus: flow cytometry on primary human B cells, binder at 1.1 ug/ml (first block).
Experiment [3] concerns the target T1, Human CD20 (human). The experiment can be described thus: flow cytometry on primary human B cells, binder at 1.1 ug/ml (second block).
Experiment [4] concerns the target T1, Human CD20 (human). The experiment can be described thus: flow cytometry on primary human B cells, binder at 0.37 ug/ml (first block).
Experiment [5] has as its target T1, Human CD20 (human). The experiment can be described thus: flow cytometry on primary human B cells, binder at 0.12 ug/ml (second block).
Experiment [6] deals with T1, Human CD20 (human). Description: flow cytometry on primary human B cells, binder at 10 ug/ml (first block).
Experiment [7] concerns the target T1, Human CD20 (human). Description: flow cytometry on primary human B cells, binder at 0.04 ug/ml (second block).
Experiment [8] addresses T1, Human CD20 (human). The experiment can be described thus: flow cytometry on primary human B cells, binder at 10 ug/ml (second block).
The target of experiment [9] is T1, Human CD20 (human). The experiment can be described thus: flow cytometry on primary human B cells, binder at 0.12 ug/ml (first block).
Experiment [10] concerns the target T2, Human CD20 (human, UniProt P11836 1-297).
T2 construct: also called Bp35
T2 sequence: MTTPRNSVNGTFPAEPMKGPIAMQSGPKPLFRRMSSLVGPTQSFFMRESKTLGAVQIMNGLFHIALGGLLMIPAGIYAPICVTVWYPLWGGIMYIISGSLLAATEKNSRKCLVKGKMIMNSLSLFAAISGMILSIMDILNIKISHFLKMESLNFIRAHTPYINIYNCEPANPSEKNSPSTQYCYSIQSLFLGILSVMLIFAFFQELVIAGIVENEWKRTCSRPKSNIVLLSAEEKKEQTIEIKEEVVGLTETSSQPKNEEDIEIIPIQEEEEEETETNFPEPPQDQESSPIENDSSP
The experiment can be described thus: cell-based or functional assay.

The target of experiment [11] is T2, Human CD20. The experiment can be described thus: flow cytometry on primary human B cells, binder at 1.1 ug/ml (second block).
The target of experiment [12] is T2, Human CD20. Description: flow cytometry on primary human B cells, binder at 0.12 ug/ml (second block).
Experiment [13] addresses T2, Human CD20. The experiment can be described thus: flow cytometry on primary human B cells, binder at 10 ug/ml (first block).
Experiment [14] deals with T2, Human CD20. The experiment can be described thus: flow cytometry on primary human B cells, binder at 0.04 ug/ml (second block).
The target in experiment [15] is T2, Human CD20. The experiment can be described thus: flow cytometry on primary human B cells, binder at 10 ug/ml (second block).
For experiment [16], the target named is T2, Human CD20. The experiment can be described thus: flow cytometry on primary human B cells, binder at 0.12 ug/ml (first block).
Experiment [17] has as its target T2, Human CD20. The experiment can be described thus: flow cytometry on five human B-lymphoma cell lines. Here is the method: (§1) Each of these cell lines was derived from a distinct non-Hodgkin's B-cell lymphoma patient. Briefly, increasing concentrations of CD20-binders were incubated with 100,000 BCL for 30 min at 4° C. Cells were then washed twice with PBS containing 1% BSA to remove unbound antibody and then a FITC labeled goat anti-human (H+ L) secondary antibody (100 fold diluted) was added for 30 min at 4° C. The cells were again washed twice to remove unbound secondary antibody and then resuspended in 1% formaldehyde (in PBS) with 1% BSA. Fluorescence intensity of each sample was measured using a Becton Dickinson FACSORT flow cytometer. Results are expressed as the geometric mean (GeoMean) of the fluorescent intensity.

The target in experiment [18] is T2, Human CD20. The experiment can be described thus: flow cytometry on NU-DHL1, Ramos, SU-DHL4, SU-DHL5 and WSU-DLCL2 cells; confirmed by immunofluorescence on Ramos and WSU-DLCL2. Here is the method: as §1

Molecule TRU-015 registered a 50% effective concentration (EC50) in the experiment with CD20 (primary B cells) of 0.279 µg/mL.

Turning to RITUXAN (rituximab) (antibody), the % lysis (CDC on Ramos cells), 0.12 ug/ml with Human CD20 (human) [1] is 56.5 % lysis. Moreover, the % lysis (CDC on Ramos cells), 0.37 ug/ml in the experiment with Human CD20 (human) [1] came to 60.2 % lysis. Further, the % lysis (CDC on Ramos cells), 1.1 ug/ml with Human CD20 (human) [1] was 57.1 % lysis. In addition, in the experiment with Human CD20 (human) [1], the % lysis (CDC on Ramos cells), 10 ug/ml came out at 82.5 % lysis. The % lysis (CDC on Ramos cells), 1 nm with Human CD20 (human) [1] was 67.6 % lysis. In addition, in the experiment with Human CD20 (human) [1], the % lysis (CDC on Ramos cells), 4 nm turned out to be 65.1 % lysis. The same molecule had a % lysis (CDC on Ramos cells), 11 nm with Human CD20 (human) [1] of 66.3 % lysis. The % lysis (CDC on Ramos cells), 100 nm in the experiment with Human CD20 (human) [1] is 81.9 % lysis. Moreover, the MFI in the experiment with Human CD20 (human) [2] is 173 MFI; in the experiment with Human CD20 (human) [3] it was 93 MFI; with Human CD20 (human) [4] it was 137 MFI; in the experiment with Human CD20 (human) [5] it was 82.3 MFI; with Human CD20 (human) [6], 199 MFI; in the experiment with Human CD20 (human) [7] it was 43.1 MFI. Further, the MFI with Human CD20 (human) [8] worked out at 172 MFI; with Human CD20 (human) [9], 106 MFI.

In the experiment with Human CD20 [10], TRU-015 (Fc fusion) displayed a % lysis (CDC on Ramos cells), 0.12 ug/ml of 16.3 % lysis; a % lysis (CDC on Ramos cells), 0.37 ug/ml of 38.8 % lysis; a % lysis (CDC on Ramos cells), 1.1 ug/ml of 56.1 % lysis; a % lysis (CDC on Ramos cells), 10 ug/ml of 67.7 % lysis. Moreover, in the experiment with Human CD20 [10], the % lysis (CDC on Ramos cells), 1 nm was 19.8 % lysis; the % lysis (CDC on Ramos cells), 4 nm came out at 26.2 % lysis; the % lysis (CDC on Ramos cells), 11 nm worked out at 49.7 % lysis; the % lysis (CDC on Ramos cells), 100 nm turned out to be 86.1 % lysis. Also, the MFI in the experiment with Human CD20 [11] was 53.4 MFI. The MFI with Human CD20 [12] was 31.4 MFI. The MFI with Human CD20 [13] stood at 149 MFI. The MFI with Human CD20 [14] stood at 19.9 MFI. In the experiment with Human CD20 [15], the MFI amounted to 124 MFI. Besides, the MFI with Human CD20 [16] is 42.8 MFI.

B1: 018008 (Fc fusion, not shown: a dimerising Fc or GST)
chain: EIVLTQSPATLSLSPGERATLSCRASQSVSYMHWYQQKPGQAPRLLIYAPSNLASGIPARFSGSGSGTDFTLTISSLEPEDFAVYYCQQWSFNPPTFGQGTKVEIKDGGGSGGGGSGGGGTGEVQLVQSGAEVKKPGESLKISCKGSGYSFTSYNMHWVRQMPGKGLEWMGAIYPGNGDTSYNQKFKGQVTISADKSISTAYLQWSSLKASDTAMYYCARVVYYSNSYWYFDLWGRGTLVTVSS
notes: Humanized SMIP as named without a hinge suffix
On to B1, for which the binding result with Human CD20 [17] was “binds”.

B2: 018011 (Fc fusion)
chain: EIVLTQSPATLSLSPGERATLSCRASQSVSYIVWYQQKPGQAPRLLIYAPSNLASGIPARFSGSGSGTDFTLTISSLEPEDFAVYYCQQWSFNPPTFGQGTKVEIKDGGGSGGGGSGGGGTGEVQLVQSGAEVKKPGESLKISCKGSGYSFTSYNMHWVRQMPGKGLEWMGAIYPGNGDTSYNQKFKGQVTISADKSISTAYLQWSSLKASDTAMYYCARSYYSNSYWYFDLWGRGTLVTVSS
notes: not shown: called human IgG1
Turning to B2, the binding result in the experiment with Human CD20 [18] was “binds”.

B3: 2Lm20-4 (Fc fusion, not shown: a dimerising Fc or GST)
chain: EIVLTQSPATLSLSPGERATLSCRASSSVSYIVWYQQKPGQAPRLLIYAPSNLASGIPARFSGSGSGTDFTLTISSLEPEDFAVYYCQQWSFNPPTFGQGTKVEIKDGGGSGGGGSGGGGSSQVQLVQSGAEVKKPGASVKVSCKASGYTFTSYNMHWVRQAPGQGLEWMGAIYPGNGDTSYNQKFKGRVTMTRDTSTSTVYMELSSLRSEDTAVYYCARSYYSNSYWYFDLWGRGTLVTVSS
notes: as for B1
In the case of B3, in the experiment with Human CD20 [17], the binding result was “binds”.
